Ends that are not written are not given here.

Consider three molecules from patent publication US20190330332A1, “Hypothermia Ameliorating Agent” (Kao Corporation, priority 2016, published 2019).

Assay [1] has as its system C57BL/6J male mice fed high fat diet. Briefly: Suppression of decrease in body temperature in mouse continuously taking in high fat diet. The conditions noted are these: in high fat diet for 26 weeks, measured at 34-week-old, compared to high fat diet control group. It is filed as in vivo. The method, then: Seven-week-old C57BL/6J male mice (CLEA Japan, Inc.) were transferred (room temperature: 23° C., humidity: 55±10%, light period: 7:00 to 19:00) and were fed with food and water ad libitum. The mice were acclimated using CE-2 (CLEA Japan, Inc.) as food for 1 week and were then grouped such that the body weights of each group were equivalent to each other and were fed with a normal diet containing 5% lipid (normal diet group), high fat diet containing 30% lipid (triacylglycerol) (high fat diet group), high fat diet containing 0.4% 4-hydroxybenzoic acid (2-bromobenzylidene) hydrazide (4H2BH, produced by the method described in Ling, et al., J. Med. Chem. 44: 3141-9, 2001) (4H2BH addition group), or high fat diet containing diacylglycerol (JP-A-2006-342084) instead of 30% triacylglycerol (DAG substitution group) for 26 weeks (34-week-old). During the breeding period, the body weight was measured once a week, and the food intake amount was measured twice a week. During the breeding period, the intake of the food and water was free. A probe was inserted into the rectum of each mouse at 34-week-old to measure the body temperature (rectal temperature).
(§1) The rectal temperature was measured with a digital rectal thermometer (NS-TC10, manufactured by NeuroScience, Inc.). […]

Assay [2] deals with C57BLKS/J misty male mice (m/m mice). Put plainly: Acute decrease in body temperature (rectal temperature) by GIP. It counts as in vivo, mouse. The following applies: 5 nmol/kg body weight intraperitoneal, 8-week-old m/m mice. The method, then: Six-week-old C57BLKS/J misty male mice (m/m mice, Oriental Yeast Co., Ltd.) were transferred (room temperature: 23° C., humidity: 55±10%, light period: 7:00 to 19:00) and were fed with food and water ad libitum. The food was CE-2 (CLEA Japan, Inc.), and the mice were acclimated for 2 weeks under the above-mentioned environment and were then used for testing.
Mouse-derived GIP (manufactured by AnaSpec, Inc.) was dissolved in physiological saline at a concentration of 500 nM to give a GIP solution.
Physiological saline (control group) or the GIP solution (5 nmol/kg body weight) (GIP administration group) was intraperitoneally administered to mice (8-week-old) in the light period (9:00 to 10:00 a.m.). Before the administration and 0.5, 2, 4.5, and 8 hours after the administration, a probe was inserted into the rectum of each mouse to measure the body temperature (rectal temperature).
The rectal temperature was measured with a digital rectal thermometer (NS-TC10, manufactured by NeuroScience, Inc.). According to Jikken Dobutsu Handobukku (Handbook of Experimental Animals) (Yokendo CO. Ltd., published in 1983), each mouse was retained under no anesthesia, and the tip of a probe (RET-3 (19×0.7 mm shaft diameter), manufactured by Physitemp instruments, LLC) was then inserted into the rectum of the mouse by 0.5 to 1 cm to measure for 15 to 30 seconds. […]

Assay [3] has as its system leptin receptor deficient C57BLKS/J male mice (db/db mice). Put plainly: Chronic decrease in body temperature by GIP and suppression by anti-GIP antibody. It counts as in vivo, mouse. The conditions noted are these: intraperitoneal every morning for 28 days, measured 1 to 2 hours after administration. The protocol:
Six-week-old leptin receptor deficient C57BLKS/J male mice (db/db mice, Oriental Yeast Co., Ltd.) were transferred (room temperature: 23° C., humidity: 55±10%, light period: 7:00 to 19:00) and were fed with food and water ad libitum. The food was CE-2 (CLEA Japan, Inc.), and the mice were acclimated for 2 weeks under the above-mentioned environment and were then used for testing.
Mouse-derived GIP (manufactured by AnaSpec, Inc.) was dissolved in physiological saline at a concentration of 500 nM to give a GIP solution. Mouse-derived GIP (manufactured by AnaSpec, Inc.) and the anti-active GIP antibody produced in Production Example 1 were dissolved in physiological saline at concentrations of 500 nM and 0.1 mg/mL, respectively, and the resulting solution was incubated for 1 to 2 hours at room temperature to give a GIP-binding anti-GIP antibody solution.
Physiological saline (control group), the GIP solution (5 nmol/kg body weight) (GIP administration group), or the GIP-binding anti-GIP antibody solution (GIP: 5 nmol/kg body weight, anti-GIP antibody: 1 mg/kg body weight) (GIP+anti-GIP antibody administration group) was intraperitoneally administered to mice (8-week-old) every morning (9:00 to 10:00 a.m.). […]
as §1

The target in assay [4] is T1, GIP(1-42) (Homo sapiens, UniProt P09681).
T1 sequence (P09681 52-93): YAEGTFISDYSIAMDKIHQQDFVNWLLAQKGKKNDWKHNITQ
Briefly: Reactivity with active GIP by sandwich ELISA. It counts as binding. The following applies: biotinylated antibody 1 μg/mL as detection antibody, GIP 8.2 to 2000 pg/mL. The protocol:
(§2) The reactivity between the monoclonal antibody prepared in Production Example 1 and active GIP was confirmed by ELISA. The amino group of the anti-active GIP monoclonal antibody was biotinylated with NH2 group biotinylation kit (manufactured by Dojindo Laboratories). ELISA was performed using the produced biotinylated anti-active GIP monoclonal antibody at 1 μg/mL instead of a detection antibody, GIP detection antibody (biotinylated anti-total GIP monoclonal antibody), included in Human (total) GIP ELISA kit (manufactured by EMD Millipore Corporation). A […] dilution series of GIP(1-42) or GIP(3-42) was prepared in 6 steps (8.2 to 2000 pg/mL) with a 2000 pg/mL solution as the highest concentration. By using an anti-total GIP monoclonal antibody (included in Human GIP (total) ELISA kit manufactured by EMD Millipore Corporation) as a capture antibody, the biotinylated anti-active GIP monoclonal antibody as a detection antibody, and a peroxidase-streptavidin conjugate for detection, sandwich ELISA was conducted to prepare a calibration curve with GIP concentration on the X-axis and 450 nm-590 nm absorbance on the Y-axis (FIG. 1).
On the technique in general: ELISA stands for enzyme-linked immunosorbent assay.

Assay [5] has as its target T2, GIP(3-42) (Homo sapiens, UniProt P09681).
T2 sequence (P09681 54-93): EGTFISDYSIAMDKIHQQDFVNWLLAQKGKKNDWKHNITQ
Briefly: Cross-reactivity with inactive GIP by sandwich ELISA. It counts as binding. The conditions noted are these: biotinylated antibody 1 μg/mL as detection antibody, GIP 8.2 to 2000 pg/mL. The method, then: as §2

In assay [6] the test system is C57BL/6J male mice (107-week-old). Put plainly: Suppression of decrease in body temperature by anti-GIP antibody in aged mouse. It counts as in vivo. The conditions noted are these: aged C57BL/6J mice, 0.5 mg/kg intraperitoneal once a week for 8 weeks. The protocol:
Four-week-old C57BL/6J male mice (CLEA Japan, Inc.) were transferred (room temperature: 23° C., humidity: 55±10%, light period: 7:00 to 19:00) and were fed with food (D12450K, Research Diets, Inc.) and water ad libitum for 111 weeks.
The anti-active GIP antibody produced in Production Example 1 was dissolved in physiological saline at a concentration of 0.05 mg/mL to give an anti-GIP antibody solution.
Physiological saline (control group) or the anti-GIP antibody solution (0.5 mg/kg body weight) (anti-GIP antibody administration group) was intraperitoneally administered to C57BL/6J mice (107-week-old) once a week (9:00 to 10:00 a.m.). The administration period was 8 weeks, and the probe was inserted into the rectum of each mouse chronologically (at 2 to 4 weeks intervals) to measure the body temperature (rectal temperature).
The rectal temperature was measured with a digital rectal thermometer (NS-TC10, manufactured by NeuroScience, Inc.). According to Jikken Dobutsu Handobukku (Handbook of Experimental Animals) (Yokendo CO. Ltd., published in 1983), each mouse was retained under no anesthesia, and the tip of a probe (RET-3 (19×0.7 mm shaft diameter), manufactured by Physitemp instruments, LLC) was then inserted into the rectum of the mouse by 0.5 to 1 cm to measure for 15 to 30 seconds.
The analysis results were shown as the average value (Ave.)±standard error (SE). […]

Assay [7] has as its target T3, PEGylated N-terminus 15 amino acids of active GIP (GIP(1-15)) (also: PEGylated, site not given here).
T3 construct: Immobilized for the ELISA; also called antigen (1) for measurement; PEGylated GIP(1-15)
T3 peptide: YAEGTFISDYSIAMD
Put plainly: ELISA on immobilized antigen, hybridoma culture supernatant. The protocol:
(§3) The reaction between the hybridoma culture supernatant and the antigen (1) and (2) for measurement was evaluated by ELISA using immobilized antigen (1) and (2), and hybridomas that are positive for the antigen (1) and negative for the antigen (2) were selected as anti-active GIP monoclonal antibody-producing hybridomas.

Assay [8] deals with T4, PEGylated N-terminus 13 amino acids of inactive GIP (GIP(3-15)) (also: PEGylated, site not given here).
T4 construct: Immobilized for the ELISA; also called antigen (2) for measurement; PEGylated GIP(3-15)
T4 peptide: EGTFISDYSIAMD
The description is as above. The protocol:
as §3

The target in assay [9] is T5, GIP(3-42) (inactive GIP).
T5 peptide: T2 sequence (P09681 54-93)
Put plainly: sandwich ELISA; anti-total GIP monoclonal antibody as capture, biotinylated anti-active GIP antibody at 1 ug/mL as detector. The protocol:
as §2, with “NH₂” for “NH2”

For the molecule `O=C(NN=Cc1ccccc1Br)c1ccc(O)cc1` [4H2BH, 4-hydroxybenzoic acid (2-bromobenzylidene) hydrazide], the “decrease in body temperature (rectal) due to high fat diet intake” value in assay [1] is reported as “suppressed”.
As for “GIP: Mouse-derived GIP (gastric inhibitory polypeptide, manufactured by AnaSpec, Inc.) dissolved in physiological saline at 500 nM (YAEGTFISDYSIAMDKIRQQDFVNWLLAQRGKKSDWKHNITQ)”, the “decrease in the body temperature (rectal) compared to the control group” value amounted to 0.83 °C in [2] (after 2 hours) and 0.81 °C in assay [2] (after 4.5 hours). Further, the “chronic change in body temperature (rectal) compared to the control group” value in assay [3] is “chronic decrease in the body temperature was observed”.

B1: anti-active GIP monoclonal antibody produced by hybridoma 9B9H5-B9 line (Production Example 1) (antibody, V domains shown)
VH: QVQLQQPGAELVKPGASVKLSCKASGYTFTSFWMHWVIQRPGQGLEWIGEMNPSDGRTHFNEKFKTKATLTIDTSSNTAYMELNSLTSEDSAVYYCARRMEDWGQGTLVTVSA
VL: DIKMTQSPSSMYASLGERVTITCKASQDINSYLGWFQQKPGKSPKTLIYGANRLVDGVPSRFSGSGSGQDYSLTISSLEYDDMGIYYCLQYDEFPLTFGAGTKLELKR
notes: in the screening and cloning ELISA it was hybridoma culture supernatant; also called anti-active GIP antibody
B1: in assay [4], the “reactivity with GIP(1-42) (450 nm-590 nm absorbance)” value is “capable of specifically detecting GIP(1-42)”. Also, the “cross-reactivity with GIP(3-42) (450 nm-590 nm absorbance)” value in assay [5] was “does not show cross-reactivity with GIP(3-42)”. Besides, in assay [6], the “body temperature (rectal) compared to the control group and the non-administration group” value is on record as “significantly high”. Moreover, the “decrease in the body temperature with aging” value in [6] is given as “suppression of a decrease in the body temperature with aging was observed”. The binding result was “binds” in assay [7], “no binding” in assay [8] and “no binding (tested: 2000 pg/mL (highest GIP concentration))” in assay [9].
